Experimental data reported in patent publication US20250076311A1 (Chugai, published 2025).

T1: cynomolgus monkey FcγRIIa3 extracellular domain with C-terminal His-tag (cynomolgus monkey)
T1 construct: also called cyno FcgRIIa3; cynoFcγRIIa3
T1 chain: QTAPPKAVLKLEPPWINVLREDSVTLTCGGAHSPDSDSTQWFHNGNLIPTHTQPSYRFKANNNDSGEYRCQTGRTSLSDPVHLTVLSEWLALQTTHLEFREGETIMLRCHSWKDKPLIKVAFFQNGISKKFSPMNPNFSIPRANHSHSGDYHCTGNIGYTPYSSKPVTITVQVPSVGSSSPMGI

T2: human FcγRIIaR extracellular domain with C-terminal His-tag (human, UniProt P12318 34-217)
T2 construct: also called human FcgRIIaR; FcγRIIa (type R)
T2 chain: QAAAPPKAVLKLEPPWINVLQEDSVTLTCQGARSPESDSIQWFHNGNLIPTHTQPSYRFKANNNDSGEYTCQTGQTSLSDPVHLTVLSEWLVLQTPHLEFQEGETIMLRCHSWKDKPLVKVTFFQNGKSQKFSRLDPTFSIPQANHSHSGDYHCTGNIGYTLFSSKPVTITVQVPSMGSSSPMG

T3: human FcγRIIaH extracellular domain with C-terminal His-tag (human, UniProt P12318 34-217)
T3 construct: also called human FcgRIIaH; FcγRIIa (type H)
T3 sequence: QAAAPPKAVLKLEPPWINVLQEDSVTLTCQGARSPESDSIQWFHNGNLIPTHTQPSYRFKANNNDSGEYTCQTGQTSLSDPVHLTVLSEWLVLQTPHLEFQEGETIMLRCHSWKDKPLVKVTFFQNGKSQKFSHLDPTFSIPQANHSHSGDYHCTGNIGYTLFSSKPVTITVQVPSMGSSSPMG

T4: cynomolgus monkey FcγRIIIaS extracellular domain, His-tagged (cynomolgus monkey, UniProt Q8SPW2 21-206 at identity 1.00))
T4 construct: also called cyno FcγRIIIaS; cynoFcgRIIIaS
T4 chain: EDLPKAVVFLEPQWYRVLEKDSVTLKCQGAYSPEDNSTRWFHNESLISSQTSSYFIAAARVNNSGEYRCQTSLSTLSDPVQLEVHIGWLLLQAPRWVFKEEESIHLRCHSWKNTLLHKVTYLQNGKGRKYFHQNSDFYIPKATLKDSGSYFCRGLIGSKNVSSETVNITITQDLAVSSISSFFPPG

T5: cynomolgus monkey FcγRIIb extracellular domain, His-tagged (cynomolgus monkey)
T5 construct: also called cyno FcγRIIb; cynoFcgRIIb
T5 chain: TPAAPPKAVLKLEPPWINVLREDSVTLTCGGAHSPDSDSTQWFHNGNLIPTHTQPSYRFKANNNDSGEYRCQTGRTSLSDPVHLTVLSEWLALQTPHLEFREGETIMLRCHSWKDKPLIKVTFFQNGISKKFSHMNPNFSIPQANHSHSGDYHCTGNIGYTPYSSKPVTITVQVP

T6: human FcγRIIaH extracellular domain, His-tagged (human, UniProt P12318 34-217)
T6 construct: also called human FcγRIIa (type H); FcgRIIaH
T6 sequence: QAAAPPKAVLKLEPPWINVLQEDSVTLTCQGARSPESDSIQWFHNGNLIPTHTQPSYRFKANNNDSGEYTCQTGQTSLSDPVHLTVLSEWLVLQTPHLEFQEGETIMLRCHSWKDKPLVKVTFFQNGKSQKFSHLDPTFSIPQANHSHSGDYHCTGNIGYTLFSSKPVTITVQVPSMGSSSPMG


Tests used:
[1] = molecular target: T7, human FcγRIIIaV extracellular domain with C-terminal His-tag (human, UniProt P08637 17-208); experiment: SPR (Biacore), KD of SG1 / KD of variant
T7 construct: also called human FcgRIIIaV

[2] = molecular target: T1, cynomolgus monkey FcγRIIa3 …; experiment: SPR (Biacore), KD of SG1 / KD of variant
[3] = molecular target: T2, human FcγRIIaR extracellular domain …; experiment: SPR (Biacore), KD of SG1 / KD of variant
[4] = molecular target: T3, human FcγRIIaH extracellular domain …; experiment: SPR (Biacore), KD of SG1 / KD of variant
[5] = molecular target: T8, human FcγRIIIaV extracellular domain, His-tagged (human, UniProt P08637 17-208); experiment: SPR (BIACORE), antibody captured, FcγR analyte, 25 C; KD of SG1 divided by KD of variant
T8 construct: also called human FcγRIIIa (V158); FcgRIIIaV
Description: (§1) The kinetic analysis of interactions between these antibodies and FcγR was carried out using BIACORE® T200 or BIACORE® 4000 (GE Healthcare). HBS-EP+ (GE Healthcare) was used as the running buffer, and the measurement temperature was set to 25° C. […] After the measurement, the antibody captured on the chip was washed off by allowing reaction with 10 mM glycine-HCl, pH1.5 and 25 mM NaOH so that the chip was regenerated and used repeatedly. The sensorgrams obtained as measurement results were analyzed by the 1:1 Langmuir binding model using the BIACORE® Evaluation Software to calculate the binding rate constant ka (L/mol/s) and dissociation rate constant kd (1/s), and the dissociation constant KD (mol/L) was calculated from these values. […] Regarding such interactions, KD values were calculated using the following 1:1 binding model described in BIACORE® T100 Software Handbook BR1006-48 Edition AE.

[6] = molecular target: T4, cynomolgus monkey FcγRIIIaS …; experiment: as above
Description: as §1

[7] = molecular target: T5, cynomolgus monkey FcγRIIb extracellular …; experiment: as above
Description: as §1

[8] = molecular target: T6, human FcγRIIaH extracellular domain, …; experiment: as above
Description: as §1

T8 sequence (P08637 17-208 F176V): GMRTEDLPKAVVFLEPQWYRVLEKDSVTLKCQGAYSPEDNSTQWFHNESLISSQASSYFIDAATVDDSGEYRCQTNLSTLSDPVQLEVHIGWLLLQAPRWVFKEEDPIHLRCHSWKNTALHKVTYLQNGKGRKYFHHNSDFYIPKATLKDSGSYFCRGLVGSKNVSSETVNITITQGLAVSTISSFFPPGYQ
T7 sequence (P08637 17-208 F176V): as above

Row | Binder | KD fold (SG1 = 1) [5] | KD fold (SG1 = 1) [6] | KD fold (SG1 = 1) [7] | other results
1 | M103205H795-MY444/M103202L889-SK1 (antibody, human IgG1, kappa, Substitutions in EU numbering on SG1) heavy: QVTLKESGPVLVKPTETLTLTCTVSGIDLSHDDISWVRQAPGKGLEWVGIISYAGSTYYASWAKGRLTISKDTSKNQVVLTMTNMDPVDTATYYCARGVPAYSHGGDLWGQGTLVTVSSASTKGPSVFPLAPSSKSTSGGTAALGCLVKDYFPEPVTVSWNSGALTSGVHTFPAVLQSSGLYSLSSVVTVPSSSLGTQTYICNVNHKPSNTKVDKKVEPKSCDKTHTCPPCPAFELLTGPSVFLFPPKPKDTLMISRTPEVTCVVVDVSDEDPEVKFNWYVDGVEVHNAKTKPREEQYNSTYRVVSVLTVLHQDWLNGKEYKCKVSNKALPKPIEKTISKAKGQPREPQVYTLPPSREEMTKNQVSLTCLVKGFYPSDIAVEWESNGQPENNYKTTPPVLDSDGSFFLYSKLTVDKSRWQQGNVFSCSVMHEALHNHYTQKSLSLSP light: DIVMTQSPATLSLSPGERATLSCTSSQSVYHANWLSWFQQKPGQPPKLLIYWASTLAYGVPSRFSGSGSGTDFTLTISSLQPEDAATYYCAGGYGGGRYAFGQGTKVEIKRTVAAPSVFIFPPSDEQLKSGTASVVCLLNNFYPREAKVQWKVDNALQSGNSQESVTEQDSKDSTYSLSSTLTLSKADYEKHKVYACEVTHQGLSSPVTKSFNRGEC | – | – | – | KD fold (SG1 = 1) [1]: 0.2 fold; KD fold (SG1 = 1) [2]: 8.9 fold; KD fold (SG1 = 1) [3]: 7.5 fold; KD fold (SG1 = 1) [4]: 6.5 fold
2 | M103205H795-MY449/M103202L889-SK1 (antibody, human IgG1, kappa, name in EU numbering) heavy: QVTLKESGPVLVKPTETLTLTCTVSGIDLSHDDISWVRQAPGKGLEWVGIISYAGSTYYASWAKGRLTISKDTSKNQVVLTMTNMDPVDTATYYCARGVPAYSHGGDLWGQGTLVTVSSASTKGPSVFPLAPSSKSTSGGTAALGCLVKDYFPEPVTVSWNSGALTSGVHTFPAVLQSSGLYSLSSVVTVPSSSLGTQTYICNVNHKPSNTKVDKKVEPKSCDKTHTCPPCPALELLTGPSVFLFPPKPKDTLMISRTPEVTCVVVDVSDEDPEVKFNWYVDGVEVHNAKTKPREEQYNSTYRVVSVLTVLHQDWLNGKEYKCKVSNKALPKPIEKTISKAKGQPREPQVYTLPPSREEMTKNQVSLTCLVKGFYPSDIAVEWESNGQPENNYKTTPPVLDSDGSFFLYSKLTVDKSRWQQGNVFSCSVMHEALHNHYTQKSLSLSP light: DIVMTQSPATLSLSPGERATLSCTSSQSVYHANWLSWFQQKPGQPPKLLIYWASTLAYGVPSRFSGSGSGTDFTLTISSLQPEDAATYYCAGGYGGGRYAFGQGTKVEIKRTVAAPSVFIFPPSDEQLKSGTASVVCLLNNFYPREAKVQWKVDNALQSGNSQESVTEQDSKDSTYSLSSTLTLSKADYEKHKVYACEVTHQGLSSPVTKSFNRGEC | 0.2 fold | – | – | –
3 | M103205H795-MY453/M103202L889-SK1 (antibody, human IgG1, kappa, name in EU numbering) heavy: QVTLKESGPVLVKPTETLTLTCTVSGIDLSHDDISWVRQAPGKGLEWVGIISYAGSTYYASWAKGRLTISKDTSKNQVVLTMTNMDPVDTATYYCARGVPAYSHGGDLWGQGTLVTVSSASTKGPSVFPLAPSSKSTSGGTAALGCLVKDYFPEPVTVSWNSGALTSGVHTFPAVLQSSGLYSLSSVVTVPSSSLGTQTYICNVNHKPSNTKVDKKVEPKSCDKTHTCPPCPARELLTGPSVFLFPPKPKDTLMISRTPEVTCVVVDVSDEDPEVKFNWYVDGVEVHNAKTKPREEQYNSTYRVVSVLTVLHQDWLNGKEYKCKVSNKALPKPIEKTISKAKGQPREPQVYTLPPSREEMTKNQVSLTCLVKGFYPSDIAVEWESNGQPENNYKTTPPVLDSDGSFFLYSKLTVDKSRWQQGNVFSCSVMHEALHNHYTQKSLSLSP light: DIVMTQSPATLSLSPGERATLSCTSSQSVYHANWLSWFQQKPGQPPKLLIYWASTLAYGVPSRFSGSGSGTDFTLTISSLQPEDAATYYCAGGYGGGRYAFGQGTKVEIKRTVAAPSVFIFPPSDEQLKSGTASVVCLLNNFYPREAKVQWKVDNALQSGNSQESVTEQDSKDSTYSLSSTLTLSKADYEKHKVYACEVTHQGLSSPVTKSFNRGEC | 0.2 fold | 0.2 fold | 0.9 fold | –
4 | M103205H795-MY457/M103202L889-SK1 (antibody, human IgG1, kappa, name in EU numbering) heavy: QVTLKESGPVLVKPTETLTLTCTVSGIDLSHDDISWVRQAPGKGLEWVGIISYAGSTYYASWAKGRLTISKDTSKNQVVLTMTNMDPVDTATYYCARGVPAYSHGGDLWGQGTLVTVSSASTKGPSVFPLAPSSKSTSGGTAALGCLVKDYFPEPVTVSWNSGALTSGVHTFPAVLQSSGLYSLSSVVTVPSSSLGTQTYICNVNHKPSNTKVDKKVEPKSCDKTHTCPPCPAWELLTGPSVFLFPPKPKDTLMISRTPEVTCVVVDVSDEDPEVKFNWYVDGVEVHNAKTKPREEQYNSTYRVVSVLTVLHQDWLNGKEYKCKVSNKALPKPIEKTISKAKGQPREPQVYTLPPSREEMTKNQVSLTCLVKGFYPSDIAVEWESNGQPENNYKTTPPVLDSDGSFFLYSKLTVDKSRWQQGNVFSCSVMHEALHNHYTQKSLSLSP light: DIVMTQSPATLSLSPGERATLSCTSSQSVYHANWLSWFQQKPGQPPKLLIYWASTLAYGVPSRFSGSGSGTDFTLTISSLQPEDAATYYCAGGYGGGRYAFGQGTKVEIKRTVAAPSVFIFPPSDEQLKSGTASVVCLLNNFYPREAKVQWKVDNALQSGNSQESVTEQDSKDSTYSLSSTLTLSKADYEKHKVYACEVTHQGLSSPVTKSFNRGEC | – | – | – | KD fold (SG1 = 1) [8]: 5.6 fold
5 | M103205H795-MY454/M103202L889-SK1 (antibody, human IgG1, kappa, name in EU numbering) heavy: QVTLKESGPVLVKPTETLTLTCTVSGIDLSHDDISWVRQAPGKGLEWVGIISYAGSTYYASWAKGRLTISKDTSKNQVVLTMTNMDPVDTATYYCARGVPAYSHGGDLWGQGTLVTVSSASTKGPSVFPLAPSSKSTSGGTAALGCLVKDYFPEPVTVSWNSGALTSGVHTFPAVLQSSGLYSLSSVVTVPSSSLGTQTYICNVNHKPSNTKVDKKVEPKSCDKTHTCPPCPASELLTGPSVFLFPPKPKDTLMISRTPEVTCVVVDVSDEDPEVKFNWYVDGVEVHNAKTKPREEQYNSTYRVVSVLTVLHQDWLNGKEYKCKVSNKALPKPIEKTISKAKGQPREPQVYTLPPSREEMTKNQVSLTCLVKGFYPSDIAVEWESNGQPENNYKTTPPVLDSDGSFFLYSKLTVDKSRWQQGNVFSCSVMHEALHNHYTQKSLSLSP light: DIVMTQSPATLSLSPGERATLSCTSSQSVYHANWLSWFQQKPGQPPKLLIYWASTLAYGVPSRFSGSGSGTDFTLTISSLQPEDAATYYCAGGYGGGRYAFGQGTKVEIKRTVAAPSVFIFPPSDEQLKSGTASVVCLLNNFYPREAKVQWKVDNALQSGNSQESVTEQDSKDSTYSLSSTLTLSKADYEKHKVYACEVTHQGLSSPVTKSFNRGEC | 0.2 fold | 0.2 fold | 1.8 fold | –
